Test results as given in IntAct's records for PubMed 12458226.

Tests used:
[1] = biological target: grip1_mouse Grip1 (UniProt Q925T6)
[2] = biological target: grip2_rat Grip2 (UniProt Q9WTW1)
Chain of grip2_rat Grip2 (Q9WTW1 whole entry): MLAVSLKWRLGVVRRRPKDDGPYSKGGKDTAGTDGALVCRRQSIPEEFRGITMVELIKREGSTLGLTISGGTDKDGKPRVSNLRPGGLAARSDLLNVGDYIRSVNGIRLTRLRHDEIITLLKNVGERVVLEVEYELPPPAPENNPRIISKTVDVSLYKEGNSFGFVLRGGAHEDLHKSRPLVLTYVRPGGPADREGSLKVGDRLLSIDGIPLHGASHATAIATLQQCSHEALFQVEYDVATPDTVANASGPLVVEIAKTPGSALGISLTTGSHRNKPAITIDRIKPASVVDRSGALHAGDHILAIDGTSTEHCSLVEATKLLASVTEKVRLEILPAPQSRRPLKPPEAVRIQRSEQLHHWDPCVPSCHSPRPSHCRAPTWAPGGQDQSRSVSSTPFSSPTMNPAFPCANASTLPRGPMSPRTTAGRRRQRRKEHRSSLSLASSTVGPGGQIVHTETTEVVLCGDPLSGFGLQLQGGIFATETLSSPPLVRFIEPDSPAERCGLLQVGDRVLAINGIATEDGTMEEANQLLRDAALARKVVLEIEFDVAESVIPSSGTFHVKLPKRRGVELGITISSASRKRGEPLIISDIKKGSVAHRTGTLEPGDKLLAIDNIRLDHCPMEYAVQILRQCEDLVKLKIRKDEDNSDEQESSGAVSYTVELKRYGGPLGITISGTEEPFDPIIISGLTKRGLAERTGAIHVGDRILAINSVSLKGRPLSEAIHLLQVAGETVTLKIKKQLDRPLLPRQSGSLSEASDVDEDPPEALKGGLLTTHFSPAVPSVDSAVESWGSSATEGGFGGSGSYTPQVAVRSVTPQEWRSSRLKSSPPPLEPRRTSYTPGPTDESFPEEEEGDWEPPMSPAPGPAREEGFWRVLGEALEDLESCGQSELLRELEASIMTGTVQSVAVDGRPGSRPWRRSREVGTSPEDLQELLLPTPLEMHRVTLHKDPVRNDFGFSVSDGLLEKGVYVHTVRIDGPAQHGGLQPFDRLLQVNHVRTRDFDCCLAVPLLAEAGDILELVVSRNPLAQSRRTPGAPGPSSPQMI

Chain of grip1_mouse Grip1 (Q925T6 whole entry): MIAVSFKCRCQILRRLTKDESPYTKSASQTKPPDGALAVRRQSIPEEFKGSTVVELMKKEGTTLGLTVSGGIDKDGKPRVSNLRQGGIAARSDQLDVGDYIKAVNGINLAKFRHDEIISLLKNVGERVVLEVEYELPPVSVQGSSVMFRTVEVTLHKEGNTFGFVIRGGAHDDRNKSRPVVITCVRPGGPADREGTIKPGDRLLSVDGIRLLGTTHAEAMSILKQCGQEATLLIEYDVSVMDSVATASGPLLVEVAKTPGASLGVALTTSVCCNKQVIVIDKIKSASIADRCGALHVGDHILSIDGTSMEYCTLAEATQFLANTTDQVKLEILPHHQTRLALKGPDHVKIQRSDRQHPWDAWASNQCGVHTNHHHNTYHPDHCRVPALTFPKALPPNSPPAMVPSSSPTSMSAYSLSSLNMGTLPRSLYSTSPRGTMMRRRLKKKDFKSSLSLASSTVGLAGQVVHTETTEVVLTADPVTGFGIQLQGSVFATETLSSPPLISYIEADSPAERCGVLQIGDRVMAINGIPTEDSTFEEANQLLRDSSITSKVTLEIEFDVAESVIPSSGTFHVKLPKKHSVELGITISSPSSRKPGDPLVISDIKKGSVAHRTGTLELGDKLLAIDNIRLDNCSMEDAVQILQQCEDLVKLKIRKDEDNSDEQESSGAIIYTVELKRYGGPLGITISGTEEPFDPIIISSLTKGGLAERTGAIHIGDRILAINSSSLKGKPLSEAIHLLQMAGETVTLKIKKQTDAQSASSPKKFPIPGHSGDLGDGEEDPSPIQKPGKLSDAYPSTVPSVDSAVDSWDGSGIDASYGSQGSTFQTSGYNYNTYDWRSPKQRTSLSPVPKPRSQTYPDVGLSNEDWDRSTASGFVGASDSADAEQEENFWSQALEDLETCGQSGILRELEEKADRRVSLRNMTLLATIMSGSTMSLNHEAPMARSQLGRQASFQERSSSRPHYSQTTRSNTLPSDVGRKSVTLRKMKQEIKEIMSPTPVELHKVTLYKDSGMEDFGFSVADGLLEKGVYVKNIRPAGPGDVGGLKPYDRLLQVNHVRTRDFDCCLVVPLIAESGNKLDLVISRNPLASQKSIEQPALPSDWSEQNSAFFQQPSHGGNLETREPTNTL

| effect of a mutation on the interaction [1] | effect of a mutation on the interaction [2] | Substance |
| --- | --- | --- |
| disrupting interaction | disrupting interaction | Chondroitin sulfate proteoglycan 4 (Mus musculus), Q8VHY0 V2327G |
| disrupting interaction | disrupting interaction | Chondroitin sulfate proteoglycan 4 (Mus musculus), Q8VHY0 W2326G |
| disrupting interaction | disrupting interaction | Chondroitin sulfate proteoglycan 4 (Mus musculus), Q8VHY0 Y2325G |
